Measured values: paper PMC8617249, “Pharmacokinetic and pharmacodynamic similarity between SAR341402 insulin aspart and Japan-approved NovoRapid in healthy Japanese subjects” (Scientific Reports, 2021)

How the values were obtained:
[1] = Plasma insulin aspart pharmacokinetics after a single subcutaneous dose (LC-MS/MS, noncompartmental); format: in vivo, human; details: single 0.3 U/kg s.c.; for INS-AUCinf, gMean (% CV) / INS-Cmax, gMean (% CV) / INS-AUClast, gMean (% CV): healthy Japanese males, fasting, plasma, LC-MS/MS, geometric mean (%CV); for INS-AUCinf, gMean (% CV): extrapolated to infinity; for INS-AUCinf, gMean (% CV) / INS-AUClast, gMean (% CV): N = 39/40; for INS-Cmax, gMean (% CV): N = 39 SAR-Asp, 40 NN-Asp-Jp; for INS-AUClast, gMean (% CV): time 0 to last quantifiable point
From the text: Following a screening visit 3–28 days before the first period, subjects enrolled into the study were admitted to the study clinic on the day before dosing. On the day of treatment, they were randomized (computer-generated by sponsor) to one of the two treatment sequences (see Supplementary Fig. S1). Subjects received a single subcutaneous dose of 0.3 U/kg SAR-Asp or NN-Asp-Jp in the first treatment period in randomized order followed by the other drug in the second treatment period. A wash-out period of 7–18 days separated each treatment period, with an end-of-study visit performed 4–8 days after the last dose.
Venous blood samples for pharmacokinetic analysis were collected before dosing of study drug, and then every 15 to 60 min during the 10 h clamp period. Samples were centrifuged within 20 min of collection. Plasma was collected and kept frozen (− 60 to − 80 °C) until analysis. Plasma concentrations of SAR-Asp and NN-Asp-Jp were analyzed by using a validated liquid chromatography-tandem mass spectrometry (LC–MS/MS) assay at Syneos Health (Quebec, Canada). Plasma concentrations within the validated concentration range (100–8000 pg/mL) were used to calculated pharmacokinetic parameters. Inter-assay precision (% coefficient of variation [CV]) and inter-assay accuracy (%bias) during validation were ≤ 15%.
The pharmacokinetic analysis dataset included subjects who completed at least one treatment period, had measurable insulin aspart concentrations and no major or critical deviations. Parameter estimates for SAR-Asp and NN-Asp-Jp were calculated by using standard noncompartmental methods with Phoenix WinNonlin 8.1 (Certara, Princeton, NJ). Area under the plasma insulin aspart concentration–time curve was calculated by the trapezoidal method from 0 to the time of the last concentration above the limit of quantification (INS-AUClast) and extrapolated to infinity (INS-AUCinf). Maximum plasma insulin aspart concentration observed (INS-Cmax) and INS-AUClast were the primary pharmacokinetic endpoints of the study. INS-AUCinf was a secondary endpoint.
(§1) Log-transformed pharmacokinetic and pharmacodynamic parameter estimates for SAR-Asp and NN-Asp-Jp were analyzed using a linear mixed-effects model with period, sequence, and treatment as fixed effects and subject as a random effect. For each parameter, the model-based difference in treatment means along with the confidence limits (90% for pharmacokinetic parameters, 95% for pharmacodynamic parameters) was back-transformed to provide estimates for the ratio of geometric means (gMean) between treatments (SAR-Asp/NN-Asp-Jp) and the corresponding confidence limits. Similarity for the pharmacokinetic parameters (INS-AUCinf and INS-Cmax) and bioequipotency for the pharmacodynamic parameters (GIR-AUC0–10 h and GIRmax) was concluded if the confidence limits (90% and 95% confidence intervals [CIs], respectively) of the treatment ratios were entirely within the 0.80–1.25 equivalence interval, in agreement with regulatory guidance[2],[18]. Data was analyzed using SAS v9.4 (SAS Institute, Cary, NC).

healthy Japanese males = test: 10 h automated euglycemic clamp, glucose infusion rate (glucodynamics); format: in vivo, human; details: single 0.3 U/kg s.c.; for GIR-AUC0-10 h, gMean (% CV) / GIRmax, gMean (% CV) / median GIR-tmax (time to reach GIRmax): healthy Japanese males, 10 h euglycemic clamp; for GIR-AUC0-10 h, gMean (% CV): body weight standardized GIR, N = 36 SAR-Asp, 38 NN-Asp-Jp; for GIR-AUC0-10 h, gMean (% CV) / GIRmax, gMean (% CV): geometric mean (%CV); for GIRmax, gMean (% CV): smoothed GIR (LOESS, 0.06), N = 36/38
Description: Each dosing visit included a 10 h automated euglycemic clamp procedure (STG-55, Artificial Endocrine Pancreas; Nikkiso Co, Ltd, Tokyo, Japan)[13]. The premise of performing the clamp procedure is that the blood glucose lowering effect of an administered insulin is antagonized by a variable infusion of glucose so that blood glucose is maintained (or clamped) at a target level[2],[14]. The metabolic profile of the investigated insulin is characterized by the glucose infusion rate (GIR) needed to keep blood glucose as close as possible at its predefined target level during the glucose clamp.
Following an overnight fast of at least 10 h, subjects were connected to the clamp device and their baseline blood glucose was determined (via glucose oxidase sensors that measure whole-blood glucose levels) before dosing of the study drug. For each subject, this was calculated as the mean of four glucose measurements at 30, 20, 10 and 1 min before administration of the study drugs. The clamp procedure was not performed in those subjects having a baseline glucose level less than 70 mg/dL ([…]). After dosing, onset of insulin action in each subject was when the blood glucose dropped below the target level of the clamp procedure, which was when it was 5 mg/dL (0.28 mmol/L) less than their fasting baseline value.
Blood glucose levels were measured in 1-min intervals, and using a predefined algorithm the clamp device automatically administered a variable infusion of 10% glucose in response to changes in glucose to maintain each subject at their target glucose level. The GIR, being the amount of external glucose needed to keep a subject’s blood glucose concentration at its target level, was continuously measured, and recorded by the STG-55 device. GIR profiles reflected the metabolic effects of SAR-Asp and NN-Asp-Jp over time.
The GIR over time was the primary pharmacodynamic parameter measured during the clamp procedure. The area under the body weight-standardized GIR time curve [GIR-AUC] measured insulin mediated glucose uptake into tissues. Subjects completing at least one clamp procedure with no major or critical deviations were included in the pharmacodynamic analysis dataset. Individual GIR values in each treatment group were standardized for body weight and subjected to a smoothing procedure using a locally weighted scatterplot smoothing (LOESS) function (SAS, PROC LOESS, factor 0.06). A smoothing factor of 6% was used based on the expected morphology of the GIR-profiles. Individual blood glucose levels were also subjected to a smoothing procedure. Fitted data were used to calculate the pharmacodynamic parameters, including the primary parameters of maximum smoothed body weight standardized GIR (GIRmax) and GIR-AUC over 10 h (GIR-AUC0–10 h), and the secondary parameter of time to reach GIRmax (GIR-tmax).
as §1

[2] = ratio of geometric means, linear mixed-effects model, equivalence range 0.80–1.25
[3] = ratio of geometric means, linear mixed-effects model, 10 h clamp, equivalence range 0.80–1.25

| Substance | INS-AUCinf, gMean (% CV) [1] | INS-Cmax, gMean (% CV) [1] | INS-AUClast, gMean (% CV) [1] | GIR-AUC0-10 h, gMean (% CV) (healthy Japanese males) | GIRmax, gMean (% CV) (healthy Japanese males) | median GIR-tmax (time to reach GIRmax) (healthy Japanese males) [h] | INS-AUCinf mean ratio SAR-Asp/NN-Asp-Jp, point estimate (90% CI) [1, 2] | INS-AUClast mean ratio SAR-Asp/NN-Asp-Jp, point estimate (90% CI) [1, 2] | INS-Cmax mean ratio SAR-Asp/NN-Asp-Jp, point estimate (90% CI) [1, 2] | GIR-AUC0-10 h mean ratio SAR-Asp/NN-Asp-Jp, point estimate (95% CI) (healthy Japanese males; [3]) | GIRmax mean ratio SAR-Asp/NN-Asp-Jp, point estimate (95% CI) (healthy Japanese males; [3]) |
| --- | --- | --- | --- | --- | --- | --- | --- | --- | --- | --- | --- |
| insulin aspart [NN-Asp-Jp] | 15,200 (27) pg·h/mL | 6690 (31) pg/mL | 15,100 (27) pg·h/mL | 2098.06 (23.5) mg/kg | 8.72 (21.0) mg/(kg·min) | 2.35 |  |  |  |  |  |
| insulin aspart [SAR-Asp] | 15,400 (26) pg·h/mL | 6690 (32) pg/mL | 15,300 (27) pg·h/mL | 2054.12 (22.2) mg/kg | 8.70 (20.9) mg/(kg·min) | 2.82 | 1.02 | 1.02 | 1.00 | 1.00 | 1.01 |
